From PMC10397247

Columns and labels:
[1] = target: T1, 4H796-bH; test: two-hybrid library CCNG1;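 further: natural log of median RNA to DNA barcode read ratio; higher means stronger binding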
T1 chain: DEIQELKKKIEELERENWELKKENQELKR

[2] = target: T2, 4H949-bH; test: two-hybrid library CCNG1;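 further: natural log of median RNA to DNA barcode read ratio; higher means stronger binding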
T2 chain: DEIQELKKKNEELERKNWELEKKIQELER

[3] = target: T3, 4H730-bH; test: two-hybrid library CCNG1;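 further: natural log of median RNA to DNA barcode read ratio; higher means stronger binding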
T3 chain: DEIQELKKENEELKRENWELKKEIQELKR

[4] = target: T4, 4H932-bH; test: two-hybrid library CCNG1;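 further: natural log of median RNA to DNA barcode read ratio; higher means stronger binding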
T4 chain: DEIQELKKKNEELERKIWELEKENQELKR

[5] = target: T5, 4H56-bH; test: two-hybrid library CCNG1
T5 chain: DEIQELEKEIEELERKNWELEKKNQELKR

[6] = target: T6, 4H349-bH; test: two-hybrid library CCNG1
T6 chain: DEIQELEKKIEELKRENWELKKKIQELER

[7] = target: T7, 4H953-bN; test: two-hybrid library CCNG1
T7 chain: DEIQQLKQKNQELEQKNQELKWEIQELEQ

[8] = target: T8, 4H908-bN; test: two-hybrid library CCNG1
T8 chain: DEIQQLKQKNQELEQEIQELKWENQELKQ

[9] = target: T9, 4H72-bN; test: two-hybrid library CCNG1
T9 chain: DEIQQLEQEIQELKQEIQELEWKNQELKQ

[10] = target: T10, 4H754-bN; test: two-hybrid library CCNG1
T10 chain: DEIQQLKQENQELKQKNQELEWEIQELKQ

[11] = target: T11, 4H918-bN; test: two-hybrid library CCNG1
T11 chain: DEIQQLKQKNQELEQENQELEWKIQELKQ

[12] = target: T12, 4H607-bN; test: two-hybrid library CCNG1
T12 chain: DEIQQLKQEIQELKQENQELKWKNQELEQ

[13] = target: T13, 4H797-bN; test: two-hybrid library CCNG1
T13 chain: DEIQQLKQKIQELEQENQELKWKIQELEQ

[14] = target: T14, 4H3855-bN; test: two-hybrid library CCNG1
T14 chain: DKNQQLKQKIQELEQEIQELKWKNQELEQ

[15] = target: T15, 4H568-bN; test: two-hybrid library CCNG1
T15 chain: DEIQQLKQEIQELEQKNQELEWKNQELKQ

[16] = target: T16, 4H4001-bN; test: two-hybrid library CCNG1
T16 chain: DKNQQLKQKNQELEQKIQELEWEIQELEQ

[17] = target: T17, 4H883-bN; test: two-hybrid library CCNG1
T17 chain: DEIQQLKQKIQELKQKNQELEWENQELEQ

[18] = target: T18, 4H717-bN; test: two-hybrid library CCNG1
T18 chain: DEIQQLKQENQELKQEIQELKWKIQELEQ

[19] = target: T19, 4H454-bN; test: two-hybrid library CCNG1
T19 chain: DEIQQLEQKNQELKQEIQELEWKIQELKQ

[20] = target: T20, 4H687-bN; test: two-hybrid library CCNG1
T20 chain: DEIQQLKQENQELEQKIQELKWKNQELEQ

[21] = target: T21, 4H967-bN; test: two-hybrid library CCNG1
T21 chain: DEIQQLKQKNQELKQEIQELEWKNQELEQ

[22] = target: T22, 4H963-AA; test: two-hybrid library CCmax
T22 chain: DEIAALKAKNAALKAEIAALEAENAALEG

[23] = target: T23, 4H56-bN; test: two-hybrid library CCNG1
T23 chain: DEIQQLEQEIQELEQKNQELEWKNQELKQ

[24] = target: T24, 4H349-bN; test: two-hybrid library CCNG1
T24 chain: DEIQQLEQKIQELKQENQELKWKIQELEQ

[25] = target: T25, 4H932-bN; test: two-hybrid library CCNG1
T25 chain: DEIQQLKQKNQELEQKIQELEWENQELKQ

[26] = target: T26, 4H949-bN; test: two-hybrid library CCNG1
T26 chain: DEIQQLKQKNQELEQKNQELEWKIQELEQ

[27] = target: T27, 4H730-bN; test: two-hybrid library CCNG1
T27 chain: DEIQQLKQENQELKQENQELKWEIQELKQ

[28] = target: T28, 4H796-bN; test: two-hybrid library CCNG1
T28 chain: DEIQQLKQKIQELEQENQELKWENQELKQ

[29] = target: T29, P9; test: two-hybrid library CC1; conditions: mean of both orientations
T29 chain: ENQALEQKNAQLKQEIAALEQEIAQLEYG

[30] = target: T30, P8; test: two-hybrid library CC1
T30 chain: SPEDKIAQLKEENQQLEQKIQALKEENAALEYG

[31] = target: T31, P8mS; test: two-hybrid library CC1; conditions: mean of both orientations
T31 chain: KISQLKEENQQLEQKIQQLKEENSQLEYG

DEIQELEKKIEELKRENWELKKKIQELER [4H349-bH]
interaction score [1]: 0.227
interaction score [2]: -0.023
interaction score [3]: -0.225
interaction score [4]: 0.654
interaction score [5]: 0.452
interaction score [6]: 0.275

DKNQQLKQKIQELEQEIQELKWKNQELEQ [4H3855-bN]
interaction score [7]: -0.653
interaction score [8]: -0.268
interaction score [9]: -0.0369
interaction score [10]: -0.585
interaction score [11]: -1.48
interaction score [12]: -0.914
interaction score [13]: -0.544
interaction score [14]: 0.124
interaction score [15]: 0.0333
interaction score [16]: 0.118
interaction score [17]: -0.0328
interaction score [18]: -0.464
interaction score [19]: -0.525
interaction score [20]: -1.97
interaction score [21]: -0.415

DEIAALKAKNAALKAEIAALEAENAALEG [4H963-AA]
interaction score [22]: -2.11

DEIQQLEQKIQELKQENQELKWKIQELEQ [4H349-bN]
interaction score [23]: -0.3
interaction score [24]: -1.89
interaction score [25]: -0.258
interaction score [26]: -0.958
interaction score [27]: -1.05
interaction score [28]: -0.249

SPEDKIAQLKEENQQLEQKIQALKEENAALEYG [P8]
interaction score [29]: -1.88
interaction score [30]: -2.5
interaction score [31]: -2.75
